Residue numbers refer to the chain shown, from its start. Each block holds one binder with its values, some of them ahead of it.
What was measured:
human VEGF (hVEGF) [1] = molecular target: T1, human VEGF (hVEGF) (human, UniProt P15692 181-395); assay: SPR single-cycle;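 for Fold change (relative to G6.31): fab variants injected over hVEGF immobilized on a CM5 chip (Biacore T200), threefold dilution series from 0.02 to 50 nM, kinetics fitted with a 1:1 Langmuir model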
T1 construct: also called VEGF-A
T1 sequence: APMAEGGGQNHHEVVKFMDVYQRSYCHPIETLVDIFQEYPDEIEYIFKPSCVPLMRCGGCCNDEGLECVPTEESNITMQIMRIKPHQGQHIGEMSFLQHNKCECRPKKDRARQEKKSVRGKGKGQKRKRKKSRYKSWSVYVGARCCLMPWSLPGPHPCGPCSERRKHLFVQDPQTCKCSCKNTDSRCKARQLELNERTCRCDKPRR
Text: (§1) To determine the binding affinity of selected Fab variants, SPR measurement with a BIACORE® T200 instrument was used. Briefly, series S sensor chip CM5 was activated with 1-ethyl-3-(3-dimethylaminopropyl) carbodiimide (EDC) and N-hydroxysuccinimide (NHS) reagents according to the supplier's instructions, and human VEGF (hVEGF) was coupled to achieve 50-80 response units (RU), then following by blocking un-reacted groups with 1M ethanolamine.
(§2) Three-fold serial dilutions of Fab in HBS-P buffer (0.01 M HEPES pH 7.4, 0.15 M NaCl, 0.005% surfactant P20) from low (0.02 nM) to high (50 nM) were injected (flow rate: 30 μl/min). The binding responses on hVEGF were corrected by subtracting of RU from a blank flow cell. The sensorgram was recorded and subject to reference and buffer subtraction before evaluating by BIACORE® T200 Evaluation Software (version 2.0). Association rates (kₒₙ) and dissociation rates (koff) were calculated using a simple one-to-one Langmuir binding model. The equilibrium dissociation constant (Kd) was calculated as the ratio koff/kₒₙ.

human VEGF (hVEGF) [2] = molecular target: T1, human VEGF (hVEGF); assay: SPR
Text: as §1, §2

human VEGF (hVEGF) [3] = molecular target: T1, human VEGF (hVEGF); assay: SPR; remark: listed apart in the source
Text: as §1, §2

human VEGF (hVEGF) [4] = molecular target: T1, human VEGF (hVEGF); assay: SPR single-cycle; remark: listed apart in the source;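 for Fold change (relative to G6.31): fab variants injected over hVEGF immobilized on a CM5 chip (Biacore T200), threefold dilution series from 0.02 to 50 nM, kinetics fitted with a 1:1 Langmuir model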

B1: G6.31 HC-A60M (Fab, name in Kabat numbering, V domains shown)
VH: EVQLVESGGGLVQPGGSLRLSCAASGFTISDYWIHWVRQAPGKGLEWVAGITPAGGYTYYMDSVKGRFTISADTSKNTAYLQMNSLRAEDTAVYYCARFVFFLPYAMDYWGQGTLVTVSS
VL: DIQMTQSPSSLSASVGDRVTITCRASQDVSTAVAWYQQKPGKAPKLLIYSASFLYSGVPSRFSGSGSGTDFTLTISSLQPEDFATYYCQQGYGNPFTFGQGTKVEIK
notes: Fab
Fold difference (relative to G6.31) (human VEGF (hVEGF) [1]): 0.8 fold
Kd (human VEGF (hVEGF) [1]): 1.89 nM
koff (human VEGF (hVEGF) [1]): 0.000729 s⁻¹
kon (human VEGF (hVEGF) [1]): 386000 M⁻¹ s⁻¹

B3: G6.31 LC-Q89N (Fab, V domains shown)
VH: B1 VH with M61A
VL: B1 VL with Q89N
notes: Fab
Fold difference (relative to G6.31) (human VEGF (hVEGF) [1]): 3.5 fold
Kd (human VEGF (hVEGF) [1]): 0.44 nM
koff (human VEGF (hVEGF) [1]): 0.000435 s⁻¹
kon (human VEGF (hVEGF) [1]): 991000 M⁻¹ s⁻¹

B4: G6.31 LC-P40E (Fab, V domains shown)
VH: B1 VH with M61A
VL: B1 VL with P40E
notes: Fab
Fold change (relative to G6.31) (human VEGF (hVEGF) [4]): 0.1 fold
Kd (human VEGF (hVEGF) [4]): 17.9 nM
koff (human VEGF (hVEGF) [4]): 0.000541 s⁻¹
kon (human VEGF (hVEGF) [4]): 30300 M⁻¹ s⁻¹

B5: G6.31 HC-Y59T (Fab, name in Kabat numbering, V domains shown)
VH: B1 VH with Y60T, M61A
VL: B1 VL
notes: Fab
Fold difference (relative to G6.31) (human VEGF (hVEGF) [1]): 0.6 fold
Kd (human VEGF (hVEGF) [1]): 2.71 nM
koff (human VEGF (hVEGF) [1]): 0.000974 s⁻¹
kon (human VEGF (hVEGF) [1]): 360000 M⁻¹ s⁻¹

B6: G6.31 LC-T31R (Fab, V domains shown)
VH: B1 VH with M61A
VL: B1 VL with T31R
notes: Fab
Fold change (relative to G6.31) (human VEGF (hVEGF) [4]): 0.9 fold
Kd (human VEGF (hVEGF) [4]): 1.8 nM
koff (human VEGF (hVEGF) [4]): 0.000489 s⁻¹
kon (human VEGF (hVEGF) [4]): 271000 M⁻¹ s⁻¹

B7: G6.31 LC-P59E (Fab, V domains shown)
VH: B1 VH with M61A
VL: B1 VL with P59E
notes: Fab
Fold change (relative to G6.31) (human VEGF (hVEGF) [4]): 1.1 fold
Kd (human VEGF (hVEGF) [4]): 1.56 nM
koff (human VEGF (hVEGF) [4]): 0.000444 s⁻¹
kon (human VEGF (hVEGF) [4]): 284000 M⁻¹ s⁻¹

B8: G6.31 HC-I51H (Fab, name in Kabat numbering, V domains shown)
VH: B1 VH with I51H, M61A
VL: B1 VL
notes: Fab
Fold difference (relative to G6.31) (human VEGF (hVEGF) [1]): 2.5 fold
Kd (human VEGF (hVEGF) [1]): 0.62 nM
koff (human VEGF (hVEGF) [1]): 0.00152 s⁻¹
kon (human VEGF (hVEGF) [1]): 2.48e+06 M⁻¹ s⁻¹

B9: G6.31 HC-Y56K (Fab, name in Kabat numbering, V domains shown)
VH: B1 VH with Y57K, M61A
VL: B1 VL
notes: Fab
Fold change (relative to G6.31) (human VEGF (hVEGF) [4]): 1.8 fold
Kd (human VEGF (hVEGF) [4]): 0.965 nM
koff (human VEGF (hVEGF) [4]): 0.000699 s⁻¹
kon (human VEGF (hVEGF) [4]): 724000 M⁻¹ s⁻¹

B10: G6.31 HC-T77E (Fab, name in Kabat numbering, V domains shown)
VH: B1 VH with M61A, T78E
VL: B1 VL
notes: Fab
Fold change (relative to G6.31) (human VEGF (hVEGF) [4]): 0.9 fold
Kd (human VEGF (hVEGF) [4]): 1.93 nM
koff (human VEGF (hVEGF) [4]): 0.000477 s⁻¹
kon (human VEGF (hVEGF) [4]): 248000 M⁻¹ s⁻¹

B14: G6.31 HC-T73N (Fab, name in Kabat numbering, V domains shown)
VH: B1 VH with M61A, T74N
VL: B1 VL
notes: Fab
Fold difference (relative to G6.31) (human VEGF (hVEGF) [1]): 1.8 fold
Kd (human VEGF (hVEGF) [1]): 0.85 nM
koff (human VEGF (hVEGF) [1]): 0.000575 s⁻¹
kon (human VEGF (hVEGF) [1]): 678000 M⁻¹ s⁻¹

B16: G6.31 LC-G93E (Fab, V domains shown)
VH: B1 VH with M61A
VL: B1 VL with G93E
notes: Fab
Fold change (relative to G6.31) (human VEGF (hVEGF) [4]): 0.3 fold
Kd (human VEGF (hVEGF) [4]): 5.98 nM
koff (human VEGF (hVEGF) [4]): 0.00149 s⁻¹
kon (human VEGF (hVEGF) [4]): 248000 M⁻¹ s⁻¹

The next lines start with the values.

Kd (human VEGF (hVEGF) [2]): 0.293 nM
koff (human VEGF (hVEGF) [2]): 0.000623 s⁻¹
kon (human VEGF (hVEGF) [2]): 2.12e+06 M⁻¹ s⁻¹
Kd (human VEGF (hVEGF) [3]): 0.293 nM
koff (human VEGF (hVEGF) [3]): 0.000623 s⁻¹
kon (human VEGF (hVEGF) [3]): 2.12e+06 M⁻¹ s⁻¹
B2: HCLC2 (Fab, V domains shown)
VH: EEQLVEEGGGLVQPGESLELSCAASGFEISDYWIHWVRQEPGEGLEWVAGITPAGGYEYYADSVEGRFTISADTSENTAYLQMNELRAEDTAVYYCARFVFFLPYAMDYWGQGELVTVSS
VL: B1 VL with R18E, K42E, S76E, F83A, N94A
notes: Fab

Kd (human VEGF (hVEGF) [2]): 0.134 nM
koff (human VEGF (hVEGF) [2]): 0.000274 s⁻¹
kon (human VEGF (hVEGF) [2]): 2.05e+06 M⁻¹ s⁻¹
Kd (human VEGF (hVEGF) [3]): 0.134 nM
koff (human VEGF (hVEGF) [3]): 0.000274 s⁻¹
kon (human VEGF (hVEGF) [3]): 2.05e+06 M⁻¹ s⁻¹
B11: HCcombo (Fab, V domains shown)
VH: B2 VH
VL: B1 VL
notes: Fab

Kd (human VEGF (hVEGF) [2]): 1.11 nM
koff (human VEGF (hVEGF) [2]): 0.000667 s⁻¹
kon (human VEGF (hVEGF) [2]): 599000 M⁻¹ s⁻¹
B12: LCcombo2 (G6.31 WT VH with LCcombo2 VL) (Fab, V domains shown)
VH: B1 VH with M61A
VL: B1 VL with R18E, K42E, S76E, F83A, N94A
notes: Fab

Kd (human VEGF (hVEGF) [2]): 2.27 nM
koff (human VEGF (hVEGF) [2]): 0.00101 s⁻¹
kon (human VEGF (hVEGF) [2]): 447000 M⁻¹ s⁻¹
B13: LCcombo1 (G6.31 WT VH with LCcombo1 VL) (Fab, V domains shown)
VH: B1 VH with M61A
VL: B1 VL with S9E, R18E, F83A, N94A
notes: Fab

Fold change (relative to G6.31) (human VEGF (hVEGF) [4]): 1.1 fold
Kd (human VEGF (hVEGF) [4]): 1.53 nM
koff (human VEGF (hVEGF) [4]): 0.000446 s⁻¹
kon (human VEGF (hVEGF) [4]): 292000 M⁻¹ s⁻¹
B15: G6.31 LC-T72R (Fab, V domains shown)
VH: B1 VH with M61A
VL: B1 VL with T72R
notes: Fab

Source: patent publication US20210115124A1 (Genentech, published 2021)
